Measurements reported in the DeepSol protein solubility set.

Experiment: soluble on expression in E. coli; label from the status in PepcDB or PDB records

Sequence | soluble on expression in E. coli
MSLSFTGLEGTRVLVADDNFTSRAILKEVLESLRFDVTLAESGEEAVDLVQKTAEPFKVVLLDWRMPGLDGLACARHIRQLDLPVRPTILIITAYGREEVLGEIPSEIIDGVLLKPVARSLLLNTILDALPEYSSRPEQESRIIQIDTAQLRQELADTSVLVVEDNKINRQIAKELLEGVGVRVTLAGDGLEALALVENYDFDLIFMDIQMPRMDGLEACRRIRQLQHKKQPPVVAMTAHALAGDRETSLRAGMNDHITKPIDPDELYAALANWIKRNHAEGHHHHHH | soluble
MLFDMLHSFHESRVIKSHHNLTQQPVSTFLLMGLDNSGKRKLSTTRTDGMMVVIVNHKTKTMTLCSLLRDTFVKIHSQQYHGYQRIESAYTYGGDAAAIATVEHYLNLPIDYYLTVNWDGFIRAIDDIGPVEVNVDRDFIGQDYWGKPEKFKAGLQSMSGARALAYARERHIDNDQHRGFRQQAVFYAMVKRLNQEGLSSKGAKVVGDLKDQMRTNLTNHDMLTLFKSRKTFKRYRVKRLTFQWRTFDVAGRSMVEVYPDSRVQVSRQLQAAAGLRPDLPSQTFTTNGHYRYASDESVESKADEAKADTHYGQSHVYVGHAGNTTIGKLPAAVPLKNGFRVSDRTETMYTVHLEHHHHHH | soluble
MATHKPINILEAFAAAPPPLDYVLPNMVAGTVGALVSPGGAGKSMLALQLAAQIAGGPDLLEVGELPTGPVIYLPAEDPPTAIHHRLHALGAHLSAEERQAVADGLLIQPLIGSLPNIMAPEWFDGLKRAAEGRRLMVLDTLRRFHIEEENASGPMAQVIGRMEAIAADTGCSIVFLHHASKGAAMMGAGDQQQASRGSSVLVDNIRWQSYLSSMTSAEAEEWGVDDDQRRFFVRFGVSKANYGAPFADRWFRRHDGGVLKPAVLERQRKSKGVPRGEA | soluble
MRKPILAALTLAGLGLAQEFITIGSGSTTGVYFPVATGIAKLVNDANVGIRANARSTGGSVANINAINAGEFEMALAQNDIAYYAYQGCCIPAFEGKPVKTIRALAALYPEVVHVVARKDAGIRTVADLKGKRVVVGDVGSGTEQNARQILEAYGLTFDDLGQAIRVSASQGIQLMQDKRADALFYTVGLGASAIQQLALTTPIALVAVDLNRIQAIAKKYPFYVGFNIPGGTYKGVDVTTPTVAVQAMLIASERLSEETVYKFMKAVFGNLEAFKKIHPNLERFFGLEKAVKGLPIPLHPGAERFYKEAGVLK | soluble
DKDNPKGLPMLSVDEPTLTMDFMVNTSPLAGTEGKFVTSRQIRDRLQKELLTNVALRVEDTADADVFRVSGRGELHLTILLENMRREGYELAVGKPRVVYRDIDGQKCEPYENLTVDVPDDNQGAVMEELGRRRGELTNMESDGNGRTRLEYHIPARGLIGFQGEFMTLTRGVGLMSHVFDDYAPVKPDMPGRHNGVLVSQEQGEAVAYALWNLEDRGRMFVSPNDKIYEGMIIGIHSRDNDLVVNPLKGKKLTNIRASGTDEAVRLTTPIKLTLEGAVEFIDDDELVEITPQSIRLRKRYLSELERRRHFKKLD | not soluble
MDDLSPDSALPPAGSAQDNDAPRQLVVCIDGTSNRFGDQPTNVVRLYRSLSRDPRRVLAYYDQGVGTFGLKETLFEWQKFPSRIAGLAFGWGLKRNVEGAYRFLAEHYRPGDQIFLFGFSRGAYAVRVLAAMLRAVGLIDAHQPHLFDYAWTLLTTRMPPRDEDKRAGTRRRGPDFGLLGRFRKVFGRQVKVHFLGLFDTVTSVGWVYDPLTVPYSSNNEMVDVVRQALAIDECRCFFRQNLWFGEKDRKSDVLQVWFPGMHSDVGGGYAPKDSRLALVAFTWMLGEALEAGLHVDPARSRDQLRARSKQGPDPTAPILPVMTRPWRLAEWLPLLVWDRRSGNRAWRWSRGRPRSRPLEPVGQETRVKLHRSVQRRLDECPDYRPCNLPALERCDLIDDSPLLDGYRLEHHHHHH | not soluble
MGSDKIHHHHHHMDEIEKSLQNWGQQLENVHLPRWHELPDIELYMDQVITLIEKYLSPLITLEKHTLLTSSMVNNYVKHGLIPAPVKKRYNQKHLAFLIAITLLKQVLTLPEIKQGILFQGATVGIREAYNLFCQEQERAIYVIAAQAQEKEVQAKSQEPMGIEYLAVKAATMSFATKMFSEKVIELEQEYLKEMDEMTHE | not soluble
MNRRDFLKTAGLTGIALGLPGCARSLPFGRDVFPDFGDDARPYLGLATSLREEHDYEARVEGTIPAGLRGTLYRNGPALFDRGGMRKRTLLDGDGMVQAFRFGDRGIRYANRFVRTRKFVEEEAAGRFLHPTWSTQAPGGIWTNVWPTERLLSQAGITVFPWRGRLYAFDESSFPYELDPDTLATVGETTFGLPRDLTTYSAHGKFDPVTGEWLHFGIRYGPRTFVHLTTFNADGTLRRHRALELPRAIYMHDWFVTERHVVFHLHPVEIAYWPFLLGIRSMAESLRWRPERGTILMVAERDGEAPPRLVETEACYLWHTFNAWEERGKITADFVGYRNPDHFISDDPVITAVMLGRRGTYSYPGEVMRYRIDPARGTAAREVLHQGSCEWPRIDERLRCRPHRTGYMLRCLPGEFFWSIVMGLDPVTGRTDEYSFGRGVYCTEPVFAPRPDTLAGGPGWLLVELYDSRTRTSSLAILDADRIADGPLALVRLTHHVPFSYHGWWQPASLEHHHHHH | not soluble
KARLIYNPTSGQEIMKKNVAEVLDILEGFGYETSAFQTTPTKNSARDEATRAAQAGFDLIVAAGGDGTINEVVNGIAPLKRRPKMAIIPTGTTNDFARALKIPRGNPIEATKLIGKNQIVKMDIGQAQED | not soluble
MDFECQFVCELKELAPVPALLIRTQTTMSELGSLFEAGYHDILQLLAGQGKSPSGPPFARYFGMSAGTFEVEFGFPVEGGVEGSGRVVTGLTPSGKAASSLYIGPYGEIEAVYDALMKWVDDNGFDLSGEAYEIYLDNPLEHHHHHH | not soluble
MSLSKRSIPNVDWANQLENAIRQFVKEKLELIMREEIKNFLEIEQAGTPNMRNGYYQRNLDTQYGRIEGLLVPRDRNGEFQTQLFAPYQRHTGWLEEAIIRMYQSGMSTREIGKFIERILGSTYSPATISRITDVVKEDIEKWHARPLHQRYSVLYLDGLYVKLRRDTVEKEVIYVVLGVNEEGYREILDFFVGGQESAYVWQEILQQLYKRGVKEVLLGVFDGLPGLEEAFKAVYPKADVQRCVVHKVRNTLSRVRKKDQFEMAEDLKLIYRSPNKEIALEMFQQFQSKWSHKYPREVQSWANELDVLLTFMDYPSSIRSVIYTTNAIERTIKEIRKRLKPMNSLSSLEAAEKVVYLTIQDFNEKWAGRKLRGFAEAQEALQRMFEEREGHHHHHH | not soluble
MGHHHHHHSHMAGAAEDARALFRAGVCAALEAWPALQIAVENGFGGVHSQEKAKWLGGAVEDYFMRNADLELDEVEDFLGELLTNEFDTVVEDGSLPQVSQQLQTMFHHFQRGDGAALREMASCITQRKCKVTATALKTARETDEDEDDVDSVEEMEVTATNDGAATDGVCPQPEPSDPDAQTIKEEDIVEDGWTIVRRKK | soluble
MSLVIVAIGCTFAAIPAYRIFCEQTSFGGLTQVAKDFDKIANMKKCEDRLIRVQFNSDVPSSMRWEFKPQQHEIYVHPGETALAFYTARNPTDKPIIGISSYNLTPFQAAYYFNKIQCFCFEEQILNPGEQVDLPVFFYIDPDYVNDPALEYLDSILLSYTFFEAKSGLKLPDPFDPKNRPSIAPSPDKVPEATK | not soluble
MSAKPVIVGGGPAGMSAAMELARHGVECVLLDEASRVGGVVYRGPLREGVVLDYLGERYRENMQALHREFEQVRDRIDIRLNTRVVGGGEGELFALTPDERVEAVPFSQLLLAAGCHERSVPFPGWTLPGVIMLGGLQLQIKSGVVKPLGRTVLVGTGPLLPLVACQLHRAGVEVAGVYEASAFGRLAKETIALLNQPQLFLDGLSMVAYLKRHGIPLHYGWGVVEAHGDAELGEVTVAPYDAEWRADLTRSRRLPAQTLAVGYGFIPRTQLTQQMGLEHRYADDGYLKPVNDEWQRSSRGNIHLAGDIGGLRGGEAAMISGRIAALSMLLQLGKLDEQQALRQRQACLDQMASILRFRKGIDSFTRRGRGQLALPARDTVICRCEHATRQDIDTALEQGVNDLISLKMRTRVSMGDCQGKMCVGYCSDRLREHTGKRDVGWIRPRFPLDPLPFSAFSAIDAQQTEEILEHHHHHH | not soluble
MNNVSEERVAEMIWDAVSEGATLKDVHGIPQDMMDGLYAHAYEFYNQGRLDEAETFFRFLCIYDFYNPDYTMGLAAVCQLKKQFQKACDLYAVAFTLLKNDYRPVFFTGQCQLLMRKAAKARQCFELVNERTEDESLRAKALVYLEALKTAETEQHSEQEKELEHHHHHH | soluble
